Measured values reported in patent publication US20200299384A1.
Like-named read-outs stand apart in the source and are kept apart here.

Tests used:
[1] = molecular target: human CD3 expressed on cells (Jurkat cells; human CD4 T cells) (human) (UniProt P07766); assay: flow cytometry on human CD4 T cells
[2] = molecular target: human CD3 expressed on cells (Jurkat cells; human CD4 T cells) (human) (UniProt P07766); assay: flow cytometry on Jurkat cells, one site saturation fit
[3] = molecular target: human CD3 expressed on cells (Jurkat cells; human CD4 T cells) (human) (UniProt P07766); assay: as above; remark: listed apart in the source
[4] = molecular target: Cynomolgus Monkey CD3 epsilon protein (Cynomolgus monkey) (UniProt Q95LI5); assay: ELISA, antigen coated on plate
Sequence of Cynomolgus Monkey CD3 epsilon protein (Cynomolgus monkey) (Q95LI5 22-117 limits assumed): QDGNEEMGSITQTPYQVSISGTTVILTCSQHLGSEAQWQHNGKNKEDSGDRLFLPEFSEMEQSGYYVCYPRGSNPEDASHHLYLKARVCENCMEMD

[5] = molecular target: Human CD3 epsilon (CD3epsilon) protein (His Tag) (human) (UniProt P07766); assay: ELISA, antigen coated on plate
Sequence of Human CD3 epsilon (CD3epsilon) protein (His Tag) (human) (P07766 23-126): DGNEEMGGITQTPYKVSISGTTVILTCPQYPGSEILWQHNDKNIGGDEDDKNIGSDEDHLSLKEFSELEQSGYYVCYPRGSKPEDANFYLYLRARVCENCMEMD

[6] = molecular target: mouse CD3epsilon protein (mouse) (UniProt P22646); assay: ELISA, antigen coated on plate
Sequence of mouse CD3epsilon protein (mouse) (P22646 22-108 limits assumed): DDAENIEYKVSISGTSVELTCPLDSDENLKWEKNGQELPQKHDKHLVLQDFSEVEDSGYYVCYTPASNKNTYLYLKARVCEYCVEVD

[7] = molecular target: human CD3 expressed on cells (Jurkat cells; human CD4 T cells) (human) (UniProt P07766); assay: flow cytometry on Jurkat cells

Sequence of human CD3 expressed on cells (Jurkat cells; human CD4 T cells) (human) (P07766 23-207): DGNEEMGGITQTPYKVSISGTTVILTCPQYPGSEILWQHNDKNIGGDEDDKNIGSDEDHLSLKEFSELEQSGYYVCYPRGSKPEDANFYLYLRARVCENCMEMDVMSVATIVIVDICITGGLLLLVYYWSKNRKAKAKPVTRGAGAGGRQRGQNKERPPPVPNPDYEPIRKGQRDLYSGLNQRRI

Substance | EC50 [1] | Best fit-Bmax [2] | Kd [2] | Best fit-Bmax [3] | Kd [3] | ELISA A450 [4] | ELISA A450 [5] | ELISA A450 [6] | EC50 [7] | EC50 [5]
Benchmark antibody OKT3 | 0.202 nM | 9.41e-11 | 0.129 nM | 6.06e-12 | 0.0277 nM | 0.052 A450 | 0.048 A450 | 0.24 A450 | 0.2 nM | 
Negative Control (Table 7) |  |  |  |  |  | 0.046 A450 | 0.046 A450 | 0.179 A450 |  | 
WBP331-BMK1 (UCHT1) (antibody) |  |  |  |  |  |  |  |  |  | 0.186 nM
